Results as given in the DeepSol protein solubility set.

Assay: soluble on expression in E. coli; label from the status in PepcDB or PDB records

Sequence | soluble on expression in E. coli
KSKKAVWHKLLSKQRRRAVVACFRMTPLYN | soluble
KSKLGSKLNLIRNYKNLGITLNYKNGFKNCKGEYIAVLEGDDYWIQKSKLKRQVSFLESNRDCSLVFNKIVLDYGDEKINNLIYPFNDIRKKFSARELVRSNFIQNFSCCMYRKSSIRKLRESIYDMVVYDWMFNMAVAQFGLIGYIPNYMTSHRILKSGLWSGKSKMENLQMISKCIDQYDSFFKYKYRKEFSQNKQEVLQALRRLVMVNENG | not soluble
KTKALIIEDKTLTDDQRKEQLLGVDTEYAKGIENIDAAKDAAGVDKAYSDGVRDILAQYKEGQNLNDRRNAAKEFL | not soluble
KTNTEQFCSDCHMNDVVPEYRASAHYSNRSGVKAVCADCHVPHEFAPKMLRKLQASTEVYAHLTGKVDNKEKFEAHRLAMAEREWARMKANNSQECRNCHNFEDMDFTQQKTVAQQMHSRAETENKTCIDCHKGIAHNLPHMEKVQKSFIPDDMIKKTEKATEIK | not soluble
KVYSLRLNQKRNEKPSIFANENVRKALAYALDKKSLVDNILADGSKEIYGYIPEKFVYNPETNEDFRQEAGALVKTDAKKAKEYLDKAKAELNGDVAIELLSRDGDSDRKVAEFIQGQLQETLPGLTINVKTVPLNNAIELMRKGDYELSVGMWGPDYQDPMTFLESSVSGNRMNYSSPTFDQLIEEATTKYANEPETRWQTLIKAEKVLVEEDAALIPLYQEA | not soluble
KYHHLTLTQRAGSAVPTSNKVLDVKGQYLESGLSAPLIAEMRKHLKAGNQVMLFLNRRGFSPALMCHECGWIAECKRCDAYYTFHQYSNEIRCHHCGSQQPVIHQCQGC | not soluble
LADSIVPRQQWAAIEPRRQIKMNGRADEIFLWQTGPDTCSLMGLTADKCQGCLQDSSCTEQIVKALQDADFKEGNDDIKYNFLIDQDGVIYEGRGWGVVGQHTKGRDSHSIGVAVIGDFGKKEPSQALQDALSKLIICGQAAEELSSGARLRTTPAMSGQAFYDMLDRCDGLCLDD | soluble
LAEGKEIPCFALTSPEAGSDAGSIPDYGVVTKGMWEGEEVVGMRITWNKRYITLAPVATVLGLAFKLQDPDGLLGDKKDLGITCALIPTDLDGVKIGRRHFPLNVPFQNGPTQGNDLFVPLDYIIGG | not soluble
LAFVGLTIAIVVTETALLFRRYTALKPADLTRLINSENALVVDLSPSSDFEKGHIAGSRSVVESKFDPESNKLLLSAKQSPLVVVCRNGHISAAAAKRLKNAGFEKVYWLDGGIATWKMAEMPLIK | not soluble
LALMSAAKLPKSFVWGYATAAYQIEGSPDKDGREPSIWDTFCKAPGKIADGSSGDVATDSYNRWREDVQLLKSYGVKAYRFSLSWSRIIPKGGRSDPVNGAGIKHYRTLIEELVKEGITPFVTLYHWDLPQALDDRYGGWLNKEEAIQDFTNYAKLCFESFGDLVQNWITFNEPWVISVMGYGNGIFAPGHVSNTEPWIVSHHIILAHAHAVKLYRDEFKEKQGGQIGITLDSHWLIPYDDTDASKEATLRAMEFKLGRFANPIYKGEYPPRIKKILGDRLPEFTPEEIELVKGSSDFFGLNTYTTHLVQDGGSDELAGFVKTGHTRADGTQLGTQSDMGWLQTYGPGFRWLLNYLWKAYDKPVYVTENGFPVKGENDLPVEQAVDDTDRQAYYRDYTEALLQAVTEDGADVRGYFGWSLLDNFEWAEGYKVRFGVTHVDYETQKRTPKKSAEFLSRWFKEHIEE | soluble
LDNPFYYLENFRQVLGWIAQRYDDLLDASERRFITEFAGLPMPAQGLLVRMVMRKGVMFRASKLSYAEIGDPHQAVLPLLQQDWVDTSPPLGLSELFQLLRRDELSQCFKAHAVKGPERKHEWLERLQPLYETAQPLEQWHPLLPDAVFGLKIMPLCDRLRLLYFGNLYQEWSEFVLADLGIYRYEKVEFSADSRGINQRDDINVCLQLHACREALETCVELHALAERAIAIECSNPWLNMRRAKLLYRIGQHAERLQDWPLALSVYRQSNYPGARSRQIRVLERNAEYTEAMALVEQAGLAPESDAEVQHLSRGTPRLQRKLGLTAARRPAARVVSRLDVQVTPSPGTSVERLIRLHLEEQQGGEVHYVENTLINSLFGLLCWRAIFAPLPGAFFHPFHSAPSDLYSPDFYQRRAALFDECLLQLESNDYRVTIREHFQSKSGLQSPFVFWGALTPQLLEQALHCLPADHLRLWFRRLLQDIKANRTGMPDLIQFFPEQRGYRMIEVKGPGDRLQDNQLRWLDFCAEHGMPVEVCYVQWA | not soluble
LEPRHAMLLRCRLPGGVITTKQWQAIDKFAGENTIYGSIRLTNRQTFQFHGILKKNVKPVHQMLHSVGLDALATANDMNRNVLCTSNPYESQLHAEAYEWAKKISEHLLPRTRAYAEIWLDQEKVATTDEEPILGQTYLPRKFKTTVVIPPQNDIDLHANDMNFVAIAENGKLVGFNLLVGGGLSIEHGNKKTYARTASEFGYLPLEHTLAVAEAVVTTQRDWGNRTDRKNAKTKYTLERVGVETFKAEVERRAGIKFEPIRPYEFTGRGDRIGWVKGIDDNWHLTLFIENGRILDYPARPLKTGLLEIAKIHKGDFRITANQNLIIAGVPESEKAKIEKIAKESGLMNAVTPQRENSMACVSFPTCPLAMAEAERFLPSFIDNIDNLMAKHGVSDEHIVMRVTGCPNGCGRAMLAEVGLVGKAPGRYNLHLGGNRIGTRIPRMYKENITEPEILASLDELIGRWAKEREAGEGFGDFTVRAGIIRPVLDPARDLWD | soluble
LEQARTMSVDEMAANPEINRLMMARIEAAQDSLAAYEKVKYITLLAEPFTLEKGELTETMKLKRRVINEHYAEAIEKMYL | not soluble
LFDLGHPLLNRIADSFVKAAGVGALQAVSREAYFTVVDGAGFDSNNVGPPSEITGNKKHRFPNLRGESSKSLDALVKNTGKESLQWGLAAGLYSGITYGMTEVRGGAHDWRNSAVAGALTGAAMAMTTSERTSHEQVVQSALTGAAISTAANLLSSVF | not soluble
LFDRVLVAYDFSKWADRALEYAKFVVKKTGGELHIIHVSEDGDKTADLRVMEEVIGAEGIEVHVHIESGTPHKAILAKREEINATTIFMGSRGAGSVMTMILGSTSESVIRRSPVPVFVCKRGDDE | not soluble
LKVLTNKASVMLFMKGNKQEAKCGFSKQILEILNSTGVEYETFDILEDEEVRQGLKTFSNWPTYPQLYVRGDLVGGLDIVKELKDNGELLPILKGE | soluble
LLEQESLPATGELYEHAACGLLVTLPNGTIERANLTFCRWLGLEREAVIGRRFQDLLNLAGKVFLQTHWAPLLQTQGSIAEVKVELIHADGRSVPMMLNAIRREYPSGFLHEVAVFLAEE | not soluble
LMKLYSLSVFYKGEPKAVLLKAAYDVSSFSFFQRSSVQEFMTFTSQLIVERSAKGSRASVKEQEYLCHVYVRSDSLAGVVIADSEYPSRVAFTLLEKVLDEFSKQVDRIDWPVGSPATIHYTALDGHLSRYQNPREADPMSKVQAELDETKIILHNTMESLLERGEKLDDLVSKSEVLGTQSKAFYKTARKQNSCCAIM | soluble
LNNRKQMAQQKFAFYEKSLPNKKRSFFEMKYYNDVTTPKIYRLTDQEMKLFDKLEA | not soluble
LQEVGSTFNIEVSILKDQATIMIDTTGSSLFKRGYRVQKGGAPIKENMAAAILALSNWFPDKPLVDPTCGSGTFCIEAAMIGMNIAPGFNRSFAFEEWSWVDKDMVQQVRDDAEQEANYEIELDISGFDIDGRMIEIAKSNAEEAGLSDVITFKQMRLQDFRTDKVNGVVISNPPYGERLLDDKAVDILYNEMGQTFAPLKTWSKFILTSDELFELKYGQKADKKRKLYNGTLKVDLYQFYGERVKRHLI | not soluble
LQFAYKDPEKNWNRNSVKGLVASLINVKDNSTATALEVVAGERLYNVVVDTEVTAKKLLEKGELKRRYTIIPLNKISARCIAPETLRVAQNLVGPDNVHVALSLVDYKPELQKGMEFVFGTTFVCNNMDNAKKVAFDKRIMTRTVTLGGDVFDPHGTLSGG | soluble
LQQFLDALASSPEKIEFETTMAVIEDNYDFTPAAFTNGNTQNDANENNGSCKIFAFGLLNALDKEATLACFGRFYREDVLLHPENNDHQNIRNFMVTGWEGIQFETSALTAK | not soluble
LQTVCLKGTKHMKCFLAFTQTKTFHEASEDCISRGGTLSTPQTGSENDALYEYLRQSVGNEAEIWLGLNKRWSRYFWVDMTGTRIAYKNWEHSSDAQPDPSNWENCAVLSGAANGKWFGKRCRDQLPYICQFGI | soluble
